Assay results taken from the Human Domainome abundance scans (Beltran et al. 2025).
± gives the uncertainty stated by the source.

B1: Ankyrin-2, residues 3571 to 3650; numbered along this chain, Q01484 (parent)
chain: ERLAYIADHLGFSWTELARELDFTEEQIHQIRIENPNSLQDQSHALLKYWLERDGKHATDTNLVECLTKINRMDIVHLME

Variants of: B1
Experiment: abundance fitness (aPCA) (normalised: wild type 0, dead -1); higher = more abundant; growth selection in yeast, the domain comes from the species named
Settings: Homo sapiens

Row | Variant | abundance fitness
1 | ERLAYIADHLGFSWTELARELDFTEEQIHQIRIENPNSLQDQSHALLKYWLERDGKHATDTNLVECLTKTNRMDIVHLME [I70T] | -0.226 ± 0.12
2 | ERLAYIADHLGFSWTELARELDFTEEQIHQIRIENPNSLQDQSHALLKYWLERDGKHATDTNLVECLTKVNRMDIVHLME [I70V] | -0.035 ± 0.14
3 | ERLAYIADHLGFSWTELARELDFTEEQIHQIRIENPNSLQDQSHALLKYWLERDGKHATDTNLVECLTKWNRMDIVHLME [I70W] | -0.789 ± 0.21
4 | ERLAYIADHLGFSWTELARELDFTEEQIHQIRIENPNSLQDQSHALLKYWLERDGKHATDTNLVECLTKIARMDIVHLME [N71A] | 0.021 ± 0.099
5 | ERLAYIADHLGFSWTELARELDFTEEQIHQIRIENPNSLQDQSHALLKYWLERDGKHATDTNLVECLTKICRMDIVHLME [N71C] | -0.064 ± 0.14
6 | ERLAYIADHLGFSWTELARELDFTEEQIHQIRIENPNSLQDQSHALLKYWLERDGKHATDTNLVECLTKIDRMDIVHLME [N71D] | -0.054 ± 0.17
7 | ERLAYIADHLGFSWTELARELDFTEEQIHQIRIENPNSLQDQSHALLKYWLERDGKHATDTNLVECLTKIERMDIVHLME [N71E] | -0.153 ± 0.12
8 | ERLAYIADHLGFSWTELARELDFTEEQIHQIRIENPNSLQDQSHALLKYWLERDGKHATDTNLVECLTKIFRMDIVHLME [N71F] | -0.343 ± 0.15
9 | ERLAYIADHLGFSWTELARELDFTEEQIHQIRIENPNSLQDQSHALLKYWLERDGKHATDTNLVECLTKIGRMDIVHLME [N71G] | -0.014 ± 0.076
10 | ERLAYIADHLGFSWTELARELDFTEEQIHQIRIENPNSLQDQSHALLKYWLERDGKHATDTNLVECLTKIHRMDIVHLME [N71H] | -0.163 ± 0.13
11 | ERLAYIADHLGFSWTELARELDFTEEQIHQIRIENPNSLQDQSHALLKYWLERDGKHATDTNLVECLTKIKRMDIVHLME [N71K] | -0.078 ± 0.12
12 | ERLAYIADHLGFSWTELARELDFTEEQIHQIRIENPNSLQDQSHALLKYWLERDGKHATDTNLVECLTKILRMDIVHLME [N71L] | -0.196 ± 0.055
13 | ERLAYIADHLGFSWTELARELDFTEEQIHQIRIENPNSLQDQSHALLKYWLERDGKHATDTNLVECLTKIMRMDIVHLME [N71M] | -0.167 ± 0.096
14 | ERLAYIADHLGFSWTELARELDFTEEQIHQIRIENPNSLQDQSHALLKYWLERDGKHATDTNLVECLTKIPRMDIVHLME [N71P] | -0.135 ± 0.057
15 | ERLAYIADHLGFSWTELARELDFTEEQIHQIRIENPNSLQDQSHALLKYWLERDGKHATDTNLVECLTKIRRMDIVHLME [N71R] | -0.031 ± 0.073
16 | ERLAYIADHLGFSWTELARELDFTEEQIHQIRIENPNSLQDQSHALLKYWLERDGKHATDTNLVECLTKISRMDIVHLME [N71S] | -0.028 ± 0.065
17 | ERLAYIADHLGFSWTELARELDFTEEQIHQIRIENPNSLQDQSHALLKYWLERDGKHATDTNLVECLTKITRMDIVHLME [N71T] | -0.18 ± 0.078
18 | ERLAYIADHLGFSWTELARELDFTEEQIHQIRIENPNSLQDQSHALLKYWLERDGKHATDTNLVECLTKIVRMDIVHLME [N71V] | -0.252 ± 0.057

Row | Variant | abundance fitness
19 | ERLAYIADHLGFSWTELARELDFTEEQIHQIRIENPNSLQDQSHALLKYWLERDGKHATDTNLVECLTKIWRMDIVHLME [N71W] | -0.355 ± 0.093
20 | ERLAYIADHLGFSWTELARELDFTEEQIHQIRIENPNSLQDQSHALLKYWLERDGKHATDTNLVECLTKIYRMDIVHLME [N71Y] | -0.476 ± 0.36
21 | ERLAYIADHLGFSWTELARELDFTEEQIHQIRIENPNSLQDQSHALLKYWLERDGKHATDTNLVECLTKINAMDIVHLME [R72A] | -0.205 ± 0.21
22 | ERLAYIADHLGFSWTELARELDFTEEQIHQIRIENPNSLQDQSHALLKYWLERDGKHATDTNLVECLTKINGMDIVHLME [R72G] | -0.204 ± 0.12
23 | ERLAYIADHLGFSWTELARELDFTEEQIHQIRIENPNSLQDQSHALLKYWLERDGKHATDTNLVECLTKINLMDIVHLME [R72L] | -0.187 ± 0.15
24 | ERLAYIADHLGFSWTELARELDFTEEQIHQIRIENPNSLQDQSHALLKYWLERDGKHATDTNLVECLTKINPMDIVHLME [R72P] | -0.588 ± 0.093
25 | ERLAYIADHLGFSWTELARELDFTEEQIHQIRIENPNSLQDQSHALLKYWLERDGKHATDTNLVECLTKINQMDIVHLME [R72Q] | -0.137 ± 0.16
26 | ERLAYIADHLGFSWTELARELDFTEEQIHQIRIENPNSLQDQSHALLKYWLERDGKHATDTNLVECLTKINSMDIVHLME [R72S] | 0.223 ± 0.26
27 | ERLAYIADHLGFSWTELARELDFTEEQIHQIRIENPNSLQDQSHALLKYWLERDGKHATDTNLVECLTKINTMDIVHLME [R72T] | -0.331 ± 0.29
28 | ERLAYIADHLGFSWTELARELDFTEEQIHQIRIENPNSLQDQSHALLKYWLERDGKHATDTNLVECLTKINVMDIVHLME [R72V] | -0.568 ± 0.15
29 | ERLAYIADHLGFSWTELARELDFTEEQIHQIRIENPNSLQDQSHALLKYWLERDGKHATDTNLVECLTKINWMDIVHLME [R72W] | -0.659 ± 0.28
30 | ERLAYIADHLGFSWTELARELDFTEEQIHQIRIENPNSLQDQSHALLKYWLERDGKHATDTNLVECLTKINRCDIVHLME [M73C] | 0.226 ± 0.48
31 | ERLAYIADHLGFSWTELARELDFTEEQIHQIRIENPNSLQDQSHALLKYWLERDGKHATDTNLVECLTKINRGDIVHLME [M73G] | -0.165 ± 0.31
32 | ERLAYIADHLGFSWTELARELDFTEEQIHQIRIENPNSLQDQSHALLKYWLERDGKHATDTNLVECLTKINRLDIVHLME [M73L] | 0.04 ± 0.41
33 | ERLAYIADHLGFSWTELARELDFTEEQIHQIRIENPNSLQDQSHALLKYWLERDGKHATDTNLVECLTKINRPDIVHLME [M73P] | -0.134 ± 0.45
34 | ERLAYIADHLGFSWTELARELDFTEEQIHQIRIENPNSLQDQSHALLKYWLERDGKHATDTNLVECLTKINRRDIVHLME [M73R] | 0.018 ± 0.35
35 | ERLAYIADHLGFSWTELARELDFTEEQIHQIRIENPNSLQDQSHALLKYWLERDGKHATDTNLVECLTKINRTDIVHLME [M73T] | -0.092 ± 0.16
